Data: article PMC2989882
Read-outs that look alike come from different tables or passages of the source.

Tests used:
[1] = target: T1, 3Dpol WT (RNA-dependent RNA polymerase) (poliovirus, UniProt P03300 1749-2209); test: NMR
[2] = target: T1, 3Dpol WT (RNA-dependent RNA polymerase); test: NMR; remark: listed apart in the source

T1 sequence (P03300 1749-2209): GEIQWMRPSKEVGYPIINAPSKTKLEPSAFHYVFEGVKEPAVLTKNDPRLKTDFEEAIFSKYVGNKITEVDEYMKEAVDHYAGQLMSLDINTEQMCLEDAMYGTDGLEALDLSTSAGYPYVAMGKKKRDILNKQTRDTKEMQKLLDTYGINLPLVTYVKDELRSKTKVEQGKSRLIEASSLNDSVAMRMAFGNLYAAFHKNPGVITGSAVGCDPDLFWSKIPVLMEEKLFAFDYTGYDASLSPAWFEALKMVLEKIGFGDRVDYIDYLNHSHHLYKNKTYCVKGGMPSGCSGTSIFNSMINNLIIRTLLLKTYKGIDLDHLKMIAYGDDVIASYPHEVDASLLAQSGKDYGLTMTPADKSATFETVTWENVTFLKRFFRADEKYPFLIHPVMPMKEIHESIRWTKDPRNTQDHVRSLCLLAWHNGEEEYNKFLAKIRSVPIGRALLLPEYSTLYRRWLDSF

| Binder | binding result [1] | binding result [2] |
| --- | --- | --- |
| 3'-blocked sym/sub RNA (after 3'-dAMP incorporation) (dsRNA, 3'-terminal 3'-deoxyadenosine (A11)) RNA 1: GCAUGGGCCCA RNA 2: GCAUGGGCCCA | binds | – |
| sym/sub RNA (dsRNA) RNA 1: GCAUGGGCCC RNA 2: GCAUGGGCCC | – | binds |
